Common to all, as to conditions: adenylation; co-substrate ATP
One data set has as its system PvfC-AWH6. In words: ATP-[…]PPi exchange, steady-state kinetics. It is filed as biochemical, Pseudomonas fluorescens.
A further data set has as its system PvfCPf0-1.
For data set [1], the system named is CC(C)C[C@H](N)C(=O)O. In words: purified protein.
For data set [2], the system named is CC(C)[C@H](N)C(=O)O. In words: purified protein.
For data set [3], the system named is CC[C@H](C)[C@H](N)C(=O)O. In words: purified protein.
In data set [4] the test system is CC(C)C[C@H](N)C(=O)O. In words: purified protein. It is filed as biochemical, Pseudomonas entomophila.
Data set [5] deals with CC(C)[C@H](N)C(=O)O. The data set is described as follows: purified protein. It is filed as biochemical, Pseudomonas entomophila.
In data set [6] the test system is CC[C@H](C)[C@H](N)C(=O)O. The data set is described as follows: purified protein. It is filed as biochemical, Pseudomonas entomophila.

A word on the Km: it is the concentration of substrate that gives half-maximal velocity. The kcat is the number of substrate molecules converted per active site and unit of time at saturation. The kcat/Km is the second-order rate constant that governs catalysis at low substrate concentration.

Consider `CC(C)C[C@H](N)C(=O)O` [L-Leu], for which the Km in the data set on PvfC-AWH6 amounted to 2100 ± 600 µM.
Take `CC(C)[C@H](N)C(=O)O` [L-Val]: in the data set with PvfCPf0-1, the Km was found to be 2400 ± 800 µM.
As for PvfCL48 (Pseudomonas entomophila L48), in the data set with CC(C)C[C@H](N)C(=O)O [1], the Km came out at 7000 ± 3000 µM, the turnover number (kcat) was 0.65 ± 0.1 s⁻¹ and the kcat/Km is 93 M⁻¹ s⁻¹. In addition, in the data set on CC(C)[C@H](N)C(=O)O [2], the Km worked out at 1200 ± 800 µM, the turnover number (kcat) was 13.1 ± 0.7 s⁻¹ and the catalytic efficiency (kcat/Km) stood at 11000 M⁻¹ s⁻¹. In the data set with CC[C@H](C)[C@H](N)C(=O)O [3], the Km came out at 8000 ± 2000 µM, the kcat was 1.3 ± 0.2 s⁻¹ and the kcat/Km is 160 M⁻¹ s⁻¹.
Regarding “PvfCL48 (Pseudomonas entomophila L48; A381S/I467L/L384I/V444M)”, in the data set with CC(C)C[C@H](N)C(=O)O [4], the Km came to 15000 ± 9000 µM, the kcat worked out at 2.2 ± 0.8 s⁻¹ and the specificity constant (kcat/Km) was 150 M⁻¹ s⁻¹. Besides, in the data set with CC(C)[C@H](N)C(=O)O [5], the Michaelis-Menten constant (Km) stood at 1200 ± 700 µM, the catalytic constant (kcat) came to 0.03 ± 0.01 s⁻¹ and the kcat/Km was 25 M⁻¹ s⁻¹.
On to “PvfCL48 (Pseudomonas entomophila L48; V444I)”, for which the Michaelis-Menten constant (Km) with CC(C)C[C@H](N)C(=O)O [4] came to 3000 ± 1000 µM; in the data set on CC(C)[C@H](N)C(=O)O [5], 1500 ± 200 µM; in the data set on CC[C@H](C)[C@H](N)C(=O)O [6], 3700 ± 700 µM. Moreover, the kcat in the data set with CC(C)C[C@H](N)C(=O)O [4] worked out at 0.71 ± 0.09 s⁻¹; in the data set on CC(C)[C@H](N)C(=O)O [5], 10.7 ± 0.5 s⁻¹; in the data set with CC[C@H](C)[C@H](N)C(=O)O [6], 1.2 ± 0.09 s⁻¹. The catalytic efficiency (kcat/Km) in the data set on CC(C)C[C@H](N)C(=O)O [4] worked out at 240 M⁻¹ s⁻¹; with CC(C)[C@H](N)C(=O)O [5] it was 7100 M⁻¹ s⁻¹; in the data set on CC[C@H](C)[C@H](N)C(=O)O [6], 320 M⁻¹ s⁻¹.

Source of the values: publication PMC7179087 (Biochemistry, 2019).
